# System: MS2 coat protein
# Assay: apparent KD of MS2 coat protein; designed switch direction (-1 OFF switch, 1 ON switch): -1; higher = weaker reporter binding
# In short: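 Each step of the titration lasted 0.8–1.5 h at the lowest concentration and 10–20 min at the highest. The protein, SNAP-549-labelled MS2 coat protein, went from 0.7 or 1.5 nM doubling to 3 µM over RNA switches transcribed on Illumina chips by stalled E. coli RNA polymerase. Normalised cluster fluorescence was curve-fitted, and the per-design median over clusters is given as apparent KD.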
# [1] = Eterna round: R95, input ligand: microRNA oligo, concentration not stated
# [2] = Eterna round: R95, input ligand: FMN 200 uM
# [3] = Eterna round: R95, input ligand: none
# [4] = input ligand: microRNA oligo, concentration not stated
Sequence,apparent KD of MS2 coat protein (input ligand: FMN 200 uM) [nM],apparent KD of MS2 coat protein (input ligand: none) [nM],apparent KD of MS2 coat protein [1] [nM],apparent KD of MS2 coat protein [2] [nM],apparent KD of MS2 coat protein [3] [nM],apparent KD of MS2 coat protein [4] [nM]
"CCUUAGUCACAGGAUAUGCUCAUCUAAUGAUGAGCAGAAGGGUGAACAUGAGGAUCACCCAUGUUUAUCAAGGG [Omei Ex6 E3] (Eterna round: R97, puzzle: Exclusion 6)",300,274,,,,
UUUUAACAUGAGGAUCACCCAUGUGAGGAUAUCGAAAUUUAUAUUAAUAUUUAUUUUUCGAGAAGGCACAUUUU [JMF 65] (puzzle: Exclusion 1),,,157,,,
"UUAUUGUGAGGAUAUAUAUGCAGUAAUCCUUUAAAUUUAUAACUUGAGGAUCACCCAAGUAGAAGGCGCGAUAU [JR_Ex2_Sub055] (Eterna round: R97, puzzle: Exclusion 2)",33,24.9,,,,
"CUUUCGUGAGGAUAUGUGGCUUCGAUCGUGAGAUCGAGGCAACAGAAGGCACAUGAGGAUCACCCAUGUUCCUC [salish99_ex4_r4_207] (Eterna round: R97, puzzle: Exclusion 4)",546,40.5,,,,
"AGUAACUAUCACGAAAGUGAUAGUUACACAAGCAGUGAAACAUGAGGAUCACCCAUGUCCUCAAUUGCUCGUCUUAU [Sensor 3 - 31] (puzzle: Sensor v3, turn-off variant 2)",,,194,47.8,49.6,
"GUGAUCUAUCAUGUAAUGAACAUGAGGAUCACCCAUGUAGGCAGGUUUUUUGCUCGUCACAUAAUAAGAUAGAUCAC [Antenna 20 - Jieux - Sensor, turn-off variant 1] (Eterna round: R97, puzzle: Sensor, turn-off variant 1)",18.6,24.2,,,,
GUUACACAUGAGGAUCACCCAUGUAAGGAUAUGCUGCGGUCGCGAAAACGUGACUGCAGCAGAAGGUACACAUG [Mat - Mod of JL D61] (puzzle: Exclusion 1),,,135,,,
"AUAAAUCAUGUAGGAUAUGCAUAGCAAAGCUAUGCAGAAGGACAUGAGGAUCACCCAUGUCAUUCCGUCUGGAGACAGACGGGA [Mat - Exclusion NG 1 - Mod of JL - D57] (Eterna round: R96, puzzle: Exclusion NG 1)",129,32,,,,26.4
UCAUGUUUAGAGGAUAUGAUUACUCUAGAGUGAUCAGAAGGCUAGACAUGAGGAUCACCCAUGUCAGAACAUGG [Exclusion 6 - B - 17:c] (puzzle: Exclusion 6),,,21.5,27.5,29.1,
"AGUACUGACACGAAAGUGUUAGUACAAUAAGCUUGUGAAACAUGAGGAUCACCCAUGUCCUCAUAAGCUCGUCUUAU [salish99_TOv2_r3_017] (puzzle: Sensor v3, turn-off variant 2)",,,1200,16,13.8,
GAAAAGGUAGGAUAUACGAAAAAAAAGGGUAGAAAAAAAACACAUGAGGAUCACCCAUGUAGAAGGACCAGAAG [salish99_ex2_r3_038] (puzzle: Exclusion 2),,,27.9,72.8,17.3,
CCACGACAUGAGGAUCACCCAUGUCAGGAUAUCCCUCAUUGUAUGAAAAUACAAUGAGGGAGAAGGGACGUGAC [SS1 Omei 2] (puzzle: Exclusion 1),,,27.1,,,
AAUAAGAGAGGAUAUACUAAAAUAUGAAUAAAAUAAAUAAAACAUGAGGAUCACCCAUGUAGAAGGCUCAAUAA [JMF's Not so obvious solution 6] (puzzle: Exclusion 2),,,19.2,23.1,24.7,
"AGCUGUGGCCGAGGAUAUCUAAUAUCUCAAACCGAAAUAUAAUCGGACAUGAGGAUCACCCAUGUAGAGAAGGCGGUCUCAGCA [Eli eng2 - 064] (Eterna round: R96, puzzle: Exclusion NG 2)",,,,,,23.6
"AGGUUGGGCGCAUCUUGCCACAUGAGGAUCACCCAUGUUGUACCAUUAGAAGAGAACAAGCUCUUUGCUCGUCUUAU [Sensor 1 S2] (Eterna round: R97, puzzle: Sensor, turn-off variant 1)",32,39.5,,,,
GCCAGAGCAGGAUAUUCAAUAUCACACAUGAGGAUCACCCAUGUCUAUCGAAAGAUAGAGGGAGAAGGGCUCUGGC [Mat - Exclusion 5 - Eli mod - D94] (puzzle: Exclusion 5),,,55.2,,,
"AGAGUGCUGCGAGGAUAUACAUGAGGAUCACCCAUGUGGUCCUGUGAGGCAAAGCCUCACAGGAUGUAGAAGGCGCAGUACUCA [Mat - Exclusion NG 2 - Mod of JL - D46] (Eterna round: R96, puzzle: Exclusion NG 2)",57,19.9,,,,14.2

Sequence,apparent KD of MS2 coat protein (input ligand: FMN 200 uM) [nM],apparent KD of MS2 coat protein (input ligand: none) [nM],apparent KD of MS2 coat protein [1] [nM],apparent KD of MS2 coat protein [2] [nM],apparent KD of MS2 coat protein [3] [nM],apparent KD of MS2 coat protein [4] [nM]
UGGUAACAUGAGGAUCACCCAUGUCAGGAUAUCAGUAAGAAUAGAUUAGAUUAGAAUAUGAGAAGGGACUAUAG [Excluse me! 3 - Jieux - Exclusion 1] (puzzle: Exclusion 1),,,38.9,38.5,47.8,
"UUAUAUAGUAUAGGAUAUUAGAGGAGAAUGGUGAUAGAGACAUGAGGAUCACCCAUGUGAGGAGAUAAGAAGGGUAAUAAUUAU [AK ExNG2-V2-3] (Eterna round: R96, puzzle: Exclusion NG 2)",326,351,,,,176
"GCACGACAUCAGGAUAUGACUAGCUUCGGCUAGUCAGAAGGGAUGACAUGAGGAUCACCCAUGUGAUCACGUGC [E6/2-B1] (Eterna round: R97, puzzle: Exclusion 6)",122,91.8,,,,
"AAAUAAUAGAUAAAAUAAAACAUGAGGAUCACCCAUGUGGGAUGUUGAGGGUGAAACAAGCUUUUUGCUCGUCUUAU (puzzle: Sensor v3, turn-off variant 1)",,,502,105,139,
"GAGUGAGCGUGAGGAAUAUACAUGAGGAUCACCCAUGUUUGCUAAUAUAUUGCUCGUCUUAUAACAACAAUUAACUG [Mod-hoo-honey#ab] (Eterna round: R97, puzzle: Sensor, turn-off variant 1)",12.6,13.7,,,,
CAUGAGGUAGGAUAUACGAUAAUAUAGGGUAGAUAUAUAACACAUGAGGAUCACCCAUGUAGAAGGACCAGUAC [Mat - Exclusion 2 - Mod of my Tesla design - D68] (puzzle: Exclusion 2),,,35.9,95.7,34.4,
"AAUAAUCAUGUAGGAUAUGCGUGGCAAAGCUAUGCAGAAGGACAUGAGGAUCACCCAUGUUCUAGCGUCUGCGUACAGAUGCUA [Mat - Exclusion NG 1 - Mod of JL - D80] (Eterna round: R96, puzzle: Exclusion NG 1)",246,37.2,,,,29.1
"GUACAACAUGAGGAUCACCCAUGUGAGGAUAUGCGAAUUUCAUCAAAAGAUGAAAUUUGCAGAAGGCACAGUAC [Omei Ex1 A8] (Eterna round: R97, puzzle: Exclusion 1)",26.6,32.8,,,,
GCCAGAGCAGGAUAUUCAAUAAUCCACAUGAGGAUCACCCAUGUCCAGCGAAAGCUGGAGGGAGAAGGGCUCUGGC [Fiskers Ex 5 - 7] (puzzle: Exclusion 5),,,73.4,,,
"GGUACUCAAAGAGUACCAAUACGAACAUGAGGAUCACCCAUGUAGGAUAUGCUACUCAAAGAGUAGCAGAAGGACGUGAACCCU [Far Half Aptamer] (Eterna round: R96, puzzle: Exclusion NG 3)",164,40.5,,,,26.5
"ACUCGACAUGAGGAUCACCCAUGUGAGGAUAUGGCCUGUUUGGCGUGAGCUGGCUCUGUCAGAAGGCGCGUGGG [salish99_ex1_r4_045] (Eterna round: R97, puzzle: Exclusion 1)",138,75.5,,,,
"UUGUUGUAUGUAGGAUAUGCGUAUUAUUAUUAUGCAGAAGGACAUGAGGAUCACCCAUGUAUAUUAUUAUUAUAUGUUAUAUAU [Title] (Eterna round: R96, puzzle: Exclusion NG 1)",,,,,,17.9
"GUAACAUGCUGGUGAUCAUACAUGAGGAUCACCCAUGUAACAAGCUUUUUGUUCGUCUUAUAAUUUAAGAUCACCAG [Stov1/7-B3] (Eterna round: R97, puzzle: Sensor, turn-off variant 1)",19.8,21.8,,,,
"AGUAACCGGGCUUUUUGCUACAUGAGGAUCACCCAUGUUUAAGCGGAGGGAUUGAUCGUCCUAAAUUCUUUAGUCGG [Eternabot (L2) Solution 8] (Eterna round: R97, puzzle: Sensor, turn-off variant 1)",16.8,17.4,,,,
"GCUCGACAUGAGGAUCACCCAUGUCAGGAUAUCUUUGGAGGAGGCUUGCCGAUGAUAGAGAGAAGGGACAGGUA [Eternabot (L2) Solution 70] (Eterna round: R97, puzzle: Exclusion 1)",26.7,22.4,,,,
"GUAAUUAAUGUAGGAUAUGCAAGGCGAACCUAAGCAGAAGGACAUGAGGAUCACCCAUGUAUUGCGGUCUGCGUUCAGAUCGCU [salish99_ExNG1_r4_009] (Eterna round: R96, puzzle: Exclusion NG 1)",,,,,,15.4
"AGUACUAACACGACAGUGUUAGUACAAUAAGCUUGUGAAACAUGAGGAUCACCCAUGUCCUCAUAAGCUCGUCUUAU [salish99_TOv2_r3_031] (Eterna round: R96, puzzle: Sensor v3, turn-off variant 2)",15.4,17.2,,,,431
